The labels stand for the following.
B1: Zinc finger homeobox protein 4, residues 2562 to 2617; numbered along this chain, Q86UP3 (parent)
chain: RLRTTITPEQLEILYEKYLLDSNPTRKMLDHIAREVGLKKRVVQVWFQNTRARERK

± gives the uncertainty stated by the source.

The series covers variants of B1. As to the kind of experiment: abundance fitness (aPCA) (normalised: wild type 0, dead -1); higher = more abundant; growth selection in yeast, the domain comes from the species named. The conditions noted are these: Homo sapiens.
RLRTTITPEQLEILYEKYLLDSNPTRKMLDHIAKEVGLKKRVVQVWFQNTRARERK [R34K]: the abundance fitness was 0.004 ± 0.08. With RLRTTITPEQLEILYEKYLLDSNPTRKMLDHIAIEVGLKKRVVQVWFQNTRARERK [R34I] the figure was -0.43 ± 0.22; with RLRTTITPEQLEILYEKYLLDSNPTRKMLDHIALEVGLKKRVVQVWFQNTRARERK [R34L], -0.011 ± 0.059. With RLRTTITPEQLEILYEKYLLDSNPTRKMLDHIATEVGLKKRVVQVWFQNTRARERK [R34T] the figure was -0.02 ± 0.1; with RLRTTITPEQLEILYEKYLLDSNPTRKMLDHIAGEVGLKKRVVQVWFQNTRARERK [R34G], 0.123 ± 0.051; with RLRTTITPEQLEILYEKYLLDSNPTRKMLDHIADEVGLKKRVVQVWFQNTRARERK [R34D], -0.536 ± 0.25. With RLRTTITPEQLEILYEKYLLDSNPTRKMLDHIAMEVGLKKRVVQVWFQNTRARERK [R34M] the figure was -0.053 ± 0.063; with RLRTTITPEQLEILYEKYLLDSNPTRKMLDHIAEEVGLKKRVVQVWFQNTRARERK [R34E], 0.244 ± 0.054; with RLRTTITPEQLEILYEKYLLDSNPTRKMLDHIAYEVGLKKRVVQVWFQNTRARERK [R34Y], 0.245 ± 0.12.

With RLRTTITPEQLEILYEKYLLDSNPTRKMLDHIAAEVGLKKRVVQVWFQNTRARERK [R34A], the abundance fitness was found to be 0.195 ± 0.073. Regarding RLRTTITPEQLEILYEKYLLDSNPTRKMLDHIASEVGLKKRVVQVWFQNTRARERK [R34S], the abundance fitness turned out to be 0.17 ± 0.084. With RLRTTITPEQLEILYEKYLLDSNPTRKMLDHIACEVGLKKRVVQVWFQNTRARERK [R34C] the figure was -0.223 ± 0.17; with RLRTTITPEQLEILYEKYLLDSNPTRKMLDHIAHEVGLKKRVVQVWFQNTRARERK [R34H], -0.162 ± 0.16. As for RLRTTITPEQLEILYEKYLLDSNPTRKMLDHIAFEVGLKKRVVQVWFQNTRARERK [R34F], the figure is -0.101 ± 0.1; as for RLRTTITPEQLEILYEKYLLDSNPTRKMLDHIANEVGLKKRVVQVWFQNTRARERK [R34N], 0.161 ± 0.18; as for RLRTTITPEQLEILYEKYLLDSNPTRKMLDHIAQEVGLKKRVVQVWFQNTRARERK [R34Q], 0.107 ± 0.06. With RLRTTITPEQLEILYEKYLLDSNPTRKMLDHIAPEVGLKKRVVQVWFQNTRARERK [R34P] the figure was -0.638 ± 0.094; with RLRTTITPEQLEILYEKYLLDSNPTRKMLDHIAWEVGLKKRVVQVWFQNTRARERK [R34W], -0.139 ± 0.067; with RLRTTITPEQLEILYEKYLLDSNPTRKMLDGIAREVGLKKRVVQVWFQNTRARERK [H31G], -0.004 ± 0.074. Regarding RLRTTITPEQLEILYEKYLLDSNPTRKMLDEIAREVGLKKRVVQVWFQNTRARERK [H31E], the abundance fitness amounted to 0.426 ± 0.095. As for RLRTTITPEQLEILYEKYLLDSNPTRKMLDYIAREVGLKKRVVQVWFQNTRARERK [H31Y], the figure is -0.201 ± 0.33; as for RLRTTITPEQLEILYEKYLLDSNPTRKMLDRIAREVGLKKRVVQVWFQNTRARERK [H31R], -0.129 ± 0.071. With RLRTTITPEQLEILYEKYLLDSNPTRKMLDAIAREVGLKKRVVQVWFQNTRARERK [H31A] the figure was 0.042 ± 0.082; with RLRTTITPEQLEILYEKYLLDSNPTRKMLDMIAREVGLKKRVVQVWFQNTRARERK [H31M], -0.169 ± 0.15. With RLRTTITPEQLEILYEKYLLDSNPTRKMLDWIAREVGLKKRVVQVWFQNTRARERK [H31W] the figure was -0.119 ± 0.11; with RLRTTITPEQLEILYEKYLLDSNPTRKMLDFIAREVGLKKRVVQVWFQNTRARERK [H31F], -0.266 ± 0.16; with RLRTTITPEQLEILYEKYLLDSNPTRKMLDKIAREVGLKKRVVQVWFQNTRARERK [H31K], 0.146 ± 0.095. For the variant RLRTTITPEQLEILYEKYLLDSNPTRKMLDSIAREVGLKKRVVQVWFQNTRARERK [H31S], the abundance fitness was found to be 0.233 ± 0.086. Regarding RLRTTITPEQLEILYEKYLLDSNPTRKMLDTIAREVGLKKRVVQVWFQNTRARERK [H31T], the abundance fitness amounted to 0.206 ± 0.08. As to RLRTTITPEQLEILYEKYLLDSNPTRKMLDDIAREVGLKKRVVQVWFQNTRARERK [H31D], the abundance fitness stood at 0.05 ± 0.1. As for RLRTTITPEQLEILYEKYLLDSNPTRKMLDNIAREVGLKKRVVQVWFQNTRARERK [H31N], the figure is -0.335 ± 0.25; as for RLRTTITPEQLEILYEKYLLDSNPTRKMLDQIAREVGLKKRVVQVWFQNTRARERK [H31Q], 0.176 ± 0.11. With RLRTTITPEQLEILYEKYLLDSNPTRKMLDLIAREVGLKKRVVQVWFQNTRARERK [H31L] the figure was -0.112 ± 0.087. As for RLRTTITPEQLEILYEKYLLDSNPTRKMLDIIAREVGLKKRVVQVWFQNTRARERK [H31I], the figure is 0.205 ± 0.15. In the case of RLRTTITPEQLEILYEKYLLDSNPTRKMLDCIAREVGLKKRVVQVWFQNTRARERK [H31C], the abundance fitness is 0.052 ± 0.23. With RLRTTITPEQLEILYEKYLLDSNPTRKMLDHIHREVGLKKRVVQVWFQNTRARERK [A33H] the figure was -0.86 ± 0.14; with RLRTTITPEQLEILYEKYLLDSNPTRKMLDHIPREVGLKKRVVQVWFQNTRARERK [A33P], -0.563 ± 0.2. Consider RLRTTITPEQLEILYEKYLLDSNPTRKMLDHICREVGLKKRVVQVWFQNTRARERK [A33C], for which the abundance fitness is -0.003 ± 0.36.

Consider RLRTTITPEQLEILYEKYLLDSNPTRKMLDHITREVGLKKRVVQVWFQNTRARERK [A33T], for which the abundance fitness was -0.331 ± 0.22. As for RLRTTITPEQLEILYEKYLLDSNPTRKMLDHIEREVGLKKRVVQVWFQNTRARERK [A33E], the figure is -0.352 ± 0.21. As for RLRTTITPEQLEILYEKYLLDSNPTRKMLDHISREVGLKKRVVQVWFQNTRARERK [A33S], the figure is -0.158 ± 0.18. With RLRTTITPEQLEILYEKYLLDSNPTRKMLDHILREVGLKKRVVQVWFQNTRARERK [A33L] the figure was -0.732 ± 0.2; with RLRTTITPEQLEILYEKYLLDSNPTRKMLDHIQREVGLKKRVVQVWFQNTRARERK [A33Q], -0.669 ± 0.45; with RLRTTITPEQLEILYEKYLLDSNPTRKMLDHIWREVGLKKRVVQVWFQNTRARERK [A33W], -0.696 ± 0.4. Turning to RLRTTITPEQLEILYEKYLLDSNPTRKMLDHIDREVGLKKRVVQVWFQNTRARERK [A33D], the abundance fitness is -0.526 ± 0.33. As for RLRTTITPEQLEILYEKYLLDSNPTRKMLDHIRREVGLKKRVVQVWFQNTRARERK [A33R], the figure is -0.541 ± 0.18; as for RLRTTITPEQLEILYEKYLLDSNPTRKMLDHIGREVGLKKRVVQVWFQNTRARERK [A33G], -0.344 ± 0.07.

Source of the values: the Human Domainome abundance scans (Beltran et al. 2025).
